{"source": "paper doi:10.64898/2025.12.10.693372", "key": {"[1]": {"target": "SARS-CoV-2 Omicron LP.8.1 spike (S-6P) (SARS-CoV-2) (UniProt P0DTC2)", "experiment": "cryo-EM structure"}, "[2]": {"target": "SARS-CoV-2 Omicron JD.1.1 spike (S-6P) (SARS-CoV-2) (UniProt P0DTC2)", "experiment": "cryo-EM structure"}}}
{"substance": "SARS-CoV-2 Omicron LP.8.1 spike (S-6P) (from UniProt P0DTC2 14-1211) (natural protein)", "values": [{"measurement": "stoichiometry N", "setting": "[1]", "result": 3}]}
{"substance": "SARS-CoV-2 Omicron JD.1.1 spike (S-6P) (from UniProt P0DTC2 14-1211) (natural protein)", "values": [{"measurement": "stoichiometry N", "setting": "[2]", "result": 3}]}
